In patent publication US20150299312A1 (TECHNISCHE UNIVERSIT T DRESDEN, published 2015):

T1: P-selectin glycoprotein ligand 1 (PSGL-1) with the O-bound glycan structure 6-sulfo N-acetyl lactosamine … (human, UniProt Q14242 42-412)
T1 construct: whole, on cells; also called slan
T1 sequence (looked up): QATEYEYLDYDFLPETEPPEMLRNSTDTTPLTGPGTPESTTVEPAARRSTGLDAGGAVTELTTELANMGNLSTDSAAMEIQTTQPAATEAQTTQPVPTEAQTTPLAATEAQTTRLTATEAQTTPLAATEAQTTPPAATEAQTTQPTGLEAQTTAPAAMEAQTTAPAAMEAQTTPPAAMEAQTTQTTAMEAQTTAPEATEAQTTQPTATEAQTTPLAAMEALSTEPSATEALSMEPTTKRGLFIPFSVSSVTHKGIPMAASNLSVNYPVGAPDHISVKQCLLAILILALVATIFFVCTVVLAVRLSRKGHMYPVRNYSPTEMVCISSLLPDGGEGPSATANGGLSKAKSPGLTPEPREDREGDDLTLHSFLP


Molecular target: T1, P-selectin glycoprotein ligand 1 …
Experiment: affinity to slan-DCs; method not stated

| Kd | fold higher affinity than DD2 or M-DC8 | Binder |
| --- | --- | --- |
| 0.4 pM | ~25 fold | monoclonal IgM antibody MB4 (antibody, V domains shown, also called anti-slan antibody MB4) VH: EVKLQESGPGLVQPSQSLSITCTVSGFSLTTYGVHWIRQSPGKGLEWLGVIWSGGGTDFNVAFMSRLSINKDNSKSQIFFKMNSLQANDTAIYYCARRTTNDGNYAFAYWGQGTLVTVS VL: DIVMTQSPLSLPVSLGDQASISCRSSQNILHSDGSTYLEWYLQKPGQSPKLLIYKVSNRFSGVPDRFSGSGSGTDFTLKISRVEAEDLGVYYCFQGSHVPWTFGGGTKLEIKR |
| 0.4 pM | ~25 fold | monoclonal IgM antibody MB6 (antibody, V domains shown, also called anti-slan antibody MB6) VH: EVKLEQSGPGLVQLSQSLSITCTVSGFSLTTYGVHWIRQSPGKGLEWLGVIWSGGGTDFNVAFISRLSINKDNSKSQVFFKMNSLQANDTAIYYCARRTTNDGNYAFAYWGQGTLVTVS VL: DIVMTQSPLSLPVSLGDQASISCRSSQNILHSDGNTYLEWYLQKPGQSPKLLIYKVSNRFSGVPDRFSGSGSGTDFTLKISRVEAEDLGVYYCFQGSHVPWTFGGGTKLEIKR |
